Data taken from US20210246166A1 (Bayer, published 2021).
Numbered stars: 1 amine (or outer) side, 2 acyl side, 3 side chain; on linkers, the order of the positions; unused ones are H or OH. Bridge positions count the residues as written; N and C are the ends. Square brackets hold non-standard residues; d marks the D form. Ends that are not written are not given here. X17 = 2‑((1S,2S)-1-(Amino)-2-methylbutyl)‑1,3‑oxazole‑4‑carboxylic acid, CC[C@H](C)[C@H](N[*:1])c1nc(C(=O)[*:2])co1; Pro(4-spirocPr) = O=C(O)[C@@H]1CC2(CC2)CN1; Oic = O=C(O)[C@@H]1C[C@@H]2CCCC[C@@H]2N1; NMeI = CC[C@H](C)[C@H](NC)C(=O)O; tBuAla = CC(C)(C)C[C@H](N)C(=O)O; Pen = CC(C)(S)[C@H](N)C(=O)O; NMeC = CN[C@@H](CS)C(=O)O; Orn = NCCC[C@H](N)C(=O)O

T1: recombinant rat MASP1 active protease (amino acids 302-704, C-terminal His Tag) (rat, UniProt Q8CHN8 302-704)
T1 sequence: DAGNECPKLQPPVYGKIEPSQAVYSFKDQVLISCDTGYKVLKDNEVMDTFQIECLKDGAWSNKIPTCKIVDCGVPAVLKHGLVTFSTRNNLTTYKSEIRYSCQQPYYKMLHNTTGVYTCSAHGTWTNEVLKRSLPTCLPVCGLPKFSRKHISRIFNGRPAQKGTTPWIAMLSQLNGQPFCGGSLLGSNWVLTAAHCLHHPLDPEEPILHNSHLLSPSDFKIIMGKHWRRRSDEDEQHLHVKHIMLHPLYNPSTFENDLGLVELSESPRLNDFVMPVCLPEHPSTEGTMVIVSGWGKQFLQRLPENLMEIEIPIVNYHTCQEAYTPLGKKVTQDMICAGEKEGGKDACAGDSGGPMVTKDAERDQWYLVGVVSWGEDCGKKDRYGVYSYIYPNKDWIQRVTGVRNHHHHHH


Target: T1, recombinant rat MASP1 active protease …
Experiment: cell-based or functional assay

Binder	rat MASP1 IC50 [nM]
AICSRS[tBuAla]P[Pro(4-spirocPr)]I[Pen]IPD-OH (disulfide 3-11; N-terminus assumed; SMILES CC[C@H](C)[C@H](NC(=O)[C@H](C)N)C(=O)N[C@H]1CSSC(C)(C)[C@@H](C(=O)N[C@H](C(=O)N2CCC[C@H]2C(=O)N[C@@H](CC(=O)O)C(=O)O)[C@@H](C)CC)NC(=O)[C@H]([C@@H](C)CC)NC(=O)[C@@H]2CC3(CC3)CN2C(=O)[C@@H]2CCCN2C(=O)[C@H](CC(C)(C)C)NC(=O)[C@H](CO)NC(=O)[C@H](CCCNC(=N)N)NC(=O)[C@H](CO)NC1=O) [Example 31: AIC+SRS-((tBu)A)-P-((6S)-5-Azaspiro[2.4]heptane-6-carboxylic acid)-I-(Pen)+IPD-OH]	22
[Orn]ICSRS[tBuAla]PPI[Pen]IPD-OH (disulfide 3-11; N-terminus assumed; SMILES CC[C@H](C)[C@H](NC(=O)[C@@H](N)CCCN)C(=O)N[C@H]1CSSC(C)(C)[C@@H](C(=O)N[C@H](C(=O)N2CCC[C@H]2C(=O)N[C@@H](CC(=O)O)C(=O)O)[C@@H](C)CC)NC(=O)[C@H]([C@@H](C)CC)NC(=O)[C@@H]2CCCN2C(=O)[C@@H]2CCCN2C(=O)[C@H](CC(C)(C)C)NC(=O)[C@H](CO)NC(=O)[C@H](CCCNC(=N)N)NC(=O)[C@H](CO)NC1=O) [Example 18: (Orn)-IC+SRS-((tBu)A)-PPI-(Pen)+IPD-OH]	26
AICSRS[tBuAla]PPI[Pen]IPD-OH (disulfide 3-11; N-terminus assumed; SMILES CC[C@H](C)[C@H](NC(=O)[C@H](C)N)C(=O)N[C@H]1CSSC(C)(C)[C@@H](C(=O)N[C@H](C(=O)N2CCC[C@H]2C(=O)N[C@@H](CC(=O)O)C(=O)O)[C@@H](C)CC)NC(=O)[C@H]([C@@H](C)CC)NC(=O)[C@@H]2CCCN2C(=O)[C@@H]2CCCN2C(=O)[C@H](CC(C)(C)C)NC(=O)[C@H](CO)NC(=O)[C@H](CCCNC(=N)N)NC(=O)[C@H](CO)NC1=O) [Example 12: AIC+SRS-((tBu)A)-PPI-(Pen)+IPD-OH]	13
AICSRS[tBuAla]PPI[NMeC][X17]D-NH2 (disulfide 3-11; N-terminus assumed; SMILES CC[C@H](C)[C@H](NC(=O)[C@H](C)N)C(=O)N[C@H]1CSSC[C@@H](C(=O)N[C@H](c2nc(C(=O)N[C@@H](CC(=O)O)C(N)=O)co2)[C@@H](C)CC)N(C)C(=O)[C@H]([C@@H](C)CC)NC(=O)[C@@H]2CCCN2C(=O)[C@@H]2CCCN2C(=O)[C@H](CC(C)(C)C)NC(=O)[C@H](CO)NC(=O)[C@H](CCCNC(=N)N)NC(=O)[C@H](CO)NC1=O)	13
AICSRS[tBuAla]P[Pro(4-spirocPr)]I[Pen]IPD-NH2 (disulfide 3-11; N-terminus assumed; SMILES CC[C@H](C)[C@H](NC(=O)[C@H](C)N)C(=O)N[C@H]1CSSC(C)(C)[C@@H](C(=O)N[C@H](C(=O)N2CCC[C@H]2C(=O)N[C@@H](CC(=O)O)C(N)=O)[C@@H](C)CC)NC(=O)[C@H]([C@@H](C)CC)NC(=O)[C@@H]2CC3(CC3)CN2C(=O)[C@@H]2CCCN2C(=O)[C@H](CC(C)(C)C)NC(=O)[C@H](CO)NC(=O)[C@H](CCCNC(=N)N)NC(=O)[C@H](CO)NC1=O) [Example 45: AIC+SRS-((tBu)A)-P-((6S)-5-Azaspiro[2.4]heptane-6-carboxylic acid)-I-(Pen)+IPD-NH2]	40
AICSRSLP[Pro(4-spirocPr)]I[Pen]IPD-OH (disulfide 3-11; N-terminus assumed; SMILES CC[C@H](C)[C@H](NC(=O)[C@H](C)N)C(=O)N[C@H]1CSSC(C)(C)[C@@H](C(=O)N[C@H](C(=O)N2CCC[C@H]2C(=O)N[C@@H](CC(=O)O)C(=O)O)[C@@H](C)CC)NC(=O)[C@H]([C@@H](C)CC)NC(=O)[C@@H]2CC3(CC3)CN2C(=O)[C@@H]2CCCN2C(=O)[C@H](CC(C)C)NC(=O)[C@H](CO)NC(=O)[C@H](CCCNC(=N)N)NC(=O)[C@H](CO)NC1=O) [Example 36: AIC+SRSLP-((6S)-5-Azaspiro[2.4]heptane-6-carboxylic acid)-I-(Pen)+IPD-OH]	24
AICSRS[tBuAla]P[Oic]I[Pen]IPD-OH (disulfide 3-11; N-terminus assumed; SMILES CC[C@H](C)[C@H](NC(=O)[C@H](C)N)C(=O)N[C@H]1CSSC(C)(C)[C@@H](C(=O)N[C@H](C(=O)N2CCC[C@H]2C(=O)N[C@@H](CC(=O)O)C(=O)O)[C@@H](C)CC)NC(=O)[C@H]([C@@H](C)CC)NC(=O)[C@@H]2C[C@@H]3CCCC[C@@H]3N2C(=O)[C@@H]2CCCN2C(=O)[C@H](CC(C)(C)C)NC(=O)[C@H](CO)NC(=O)[C@H](CCCNC(=N)N)NC(=O)[C@H](CO)NC1=O) [Example 14: AIC+SRS-((tBu)A)-P-(Oic)-I-(Pen)+IPD-OH]	23
AICSRSLP[Pro(4-spirocPr)]I[Pen]IPD-NH2 (disulfide 3-11; N-terminus assumed; SMILES CC[C@H](C)[C@H](NC(=O)[C@H](C)N)C(=O)N[C@H]1CSSC(C)(C)[C@@H](C(=O)N[C@H](C(=O)N2CCC[C@H]2C(=O)N[C@@H](CC(=O)O)C(N)=O)[C@@H](C)CC)NC(=O)[C@H]([C@@H](C)CC)NC(=O)[C@@H]2CC3(CC3)CN2C(=O)[C@@H]2CCCN2C(=O)[C@H](CC(C)C)NC(=O)[C@H](CO)NC(=O)[C@H](CCCNC(=N)N)NC(=O)[C@H](CO)NC1=O) [Example 17: AIC+SRSLP-((6S)-5-Azaspiro[2.4]heptane-6-carboxylic acid)-I-(Pen)+IPD-NH2]	31

More lines, now with the values ahead:

rat MASP1 IC50 [nM]	Binder
12	RICSRS[tBuAla]PPI[NMeC]I-NH2 (disulfide 3-11; N-terminus assumed; SMILES CC[C@H](C)[C@H](NC(=O)[C@@H]1CSSC[C@H](NC(=O)[C@@H](NC(=O)[C@@H](N)CCCNC(=N)N)[C@@H](C)CC)C(=O)N[C@@H](CO)C(=O)N[C@@H](CCCNC(=N)N)C(=O)N[C@@H](CO)C(=O)N[C@@H](CC(C)(C)C)C(=O)N2CCC[C@H]2C(=O)N2CCC[C@H]2C(=O)N[C@@H]([C@@H](C)CC)C(=O)N1C)C(N)=O) [Example 38: RIC+SRS-((tBu)A)-PPI-((N-Me)C)+I-NH2]
140	AICSRS[tBuAla]PPICI-NH2 (disulfide 3-11; N-terminus assumed; SMILES CC[C@H](C)[C@H](NC(=O)[C@@H]1CSSC[C@H](NC(=O)[C@@H](NC(=O)[C@H](C)N)[C@@H](C)CC)C(=O)N[C@@H](CO)C(=O)N[C@@H](CCCNC(=N)N)C(=O)N[C@@H](CO)C(=O)N[C@@H](CC(C)(C)C)C(=O)N2CCC[C@H]2C(=O)N2CCC[C@H]2C(=O)N[C@@H]([C@@H](C)CC)C(=O)N1)C(N)=O) [Example 37: AIC+SRS-((tBu)A)-PPIC+I-NH2]
51.5	AICSRS[tBuAla]PPI[NMeC]IPD-NH2 (disulfide 3-11; N-terminus assumed; SMILES CC[C@H](C)[C@H](NC(=O)[C@H](C)N)C(=O)N[C@H]1CSSC[C@@H](C(=O)N[C@H](C(=O)N2CCC[C@H]2C(=O)N[C@@H](CC(=O)O)C(N)=O)[C@@H](C)CC)N(C)C(=O)[C@H]([C@@H](C)CC)NC(=O)[C@@H]2CCCN2C(=O)[C@@H]2CCCN2C(=O)[C@H](CC(C)(C)C)NC(=O)[C@H](CO)NC(=O)[C@H](CCCNC(=N)N)NC(=O)[C@H](CO)NC1=O) [Example 48: AIC+SRS-((tBu)A)-PPI-((N-Me)C)+IPD-NH2]
250	Ac-G[NMeI]CSRSLPPICIPD-OH (disulfide 3-11; SMILES CC[C@H](C)[C@@H]1NC(=O)[C@@H]2CCCN2C(=O)[C@@H]2CCCN2C(=O)[C@H](CC(C)C)NC(=O)[C@H](CO)NC(=O)[C@H](CCCNC(=N)N)NC(=O)[C@H](CO)NC(=O)[C@@H](NC(=O)[C@H]([C@@H](C)CC)N(C)C(=O)CNC(C)=O)CSSC[C@@H](C(=O)N[C@H](C(=O)N2CCC[C@H]2C(=O)N[C@@H](CC(=O)O)C(=O)O)[C@@H](C)CC)NC1=O) [Example 59: Ac-G-((N-Me)I)-C+SRSLPPIC+IPD-OH]
46	KICSRS[tBuAla]PPI[NMeC]IPD-NH2 (disulfide 3-11; N-terminus assumed; SMILES CC[C@H](C)[C@H](NC(=O)[C@@H](N)CCCCN)C(=O)N[C@H]1CSSC[C@@H](C(=O)N[C@H](C(=O)N2CCC[C@H]2C(=O)N[C@@H](CC(=O)O)C(N)=O)[C@@H](C)CC)N(C)C(=O)[C@H]([C@@H](C)CC)NC(=O)[C@@H]2CCCN2C(=O)[C@@H]2CCCN2C(=O)[C@H](CC(C)(C)C)NC(=O)[C@H](CO)NC(=O)[C@H](CCCNC(=N)N)NC(=O)[C@H](CO)NC1=O) [Example 35: KIC+SRS-((tBu)A)-PPI-((N-Me)C)+IPD-NH2]
28	AICSRS[tBuAla]PPI[NMeC]IPD-NH2 (disulfide 3-11; also: HCl salt) [Example 30: AIC+SRS-((tBu)A)-PPI-((N-Me)C)+IPD-NH2 (HCl salt)]
60	[Orn]ICSRS[tBuAla]PPI[Pen]IPD-NH2 (disulfide 3-11; N-terminus assumed; SMILES CC[C@H](C)[C@H](NC(=O)[C@@H](N)CCCN)C(=O)N[C@H]1CSSC(C)(C)[C@@H](C(=O)N[C@H](C(=O)N2CCC[C@H]2C(=O)N[C@@H](CC(=O)O)C(N)=O)[C@@H](C)CC)NC(=O)[C@H]([C@@H](C)CC)NC(=O)[C@@H]2CCCN2C(=O)[C@@H]2CCCN2C(=O)[C@H](CC(C)(C)C)NC(=O)[C@H](CO)NC(=O)[C@H](CCCNC(=N)N)NC(=O)[C@H](CO)NC1=O) [Example 49: (Orn)-IC+SRS-((tBu)A)-PPI-(Pen)+IPD-NH2]
23	RICSRS[tBuAla]PPI[NMeC]IPD-NH2 (disulfide 3-11; N-terminus assumed; SMILES CC[C@H](C)[C@H](NC(=O)[C@@H](N)CCCNC(=N)N)C(=O)N[C@H]1CSSC[C@@H](C(=O)N[C@H](C(=O)N2CCC[C@H]2C(=O)N[C@@H](CC(=O)O)C(N)=O)[C@@H](C)CC)N(C)C(=O)[C@H]([C@@H](C)CC)NC(=O)[C@@H]2CCCN2C(=O)[C@@H]2CCCN2C(=O)[C@H](CC(C)(C)C)NC(=O)[C@H](CO)NC(=O)[C@H](CCCNC(=N)N)NC(=O)[C@H](CO)NC1=O) [Example 19: RIC+SRS-((tBu)A)-PPI-((N-Me)C)+IPD-NH2]
